Each block holds one molecule with its values, some of them ahead of it.
Experiments:
[1] = target: Nbs1 1-335 (UniProt O60934); experiment: co-expression, GST pull-down, anti-Flag blot; conditions: reference: wild-type 200-600 fragment
[2] = target: BRCA1 (UniProt P38398); experiment: co-immunoprecipitation, HA-CtIP and Myc-BRCA1; conditions: reference: wild type; sites S327
[3] = target: T1, GST-CtIP-His (purified CtIP-WT) (human, UniProt Q99708 1-897, phosphorylated by CDKs when expressed in insect cells (sites in Table S2)); experiment: pull-down; purified Nbs1(1–335) or Nbs1(1–335)-RRHK incubated with purified CtIP-WT or CtIP-12A-CDK coupled to glutathione agarose beads; Western blot with anti-His and anti-GST; conditions: both partners purified
T1 construct: CtIP, human; also called GST-CtIP WT
T1 sequence (Q99708 whole entry): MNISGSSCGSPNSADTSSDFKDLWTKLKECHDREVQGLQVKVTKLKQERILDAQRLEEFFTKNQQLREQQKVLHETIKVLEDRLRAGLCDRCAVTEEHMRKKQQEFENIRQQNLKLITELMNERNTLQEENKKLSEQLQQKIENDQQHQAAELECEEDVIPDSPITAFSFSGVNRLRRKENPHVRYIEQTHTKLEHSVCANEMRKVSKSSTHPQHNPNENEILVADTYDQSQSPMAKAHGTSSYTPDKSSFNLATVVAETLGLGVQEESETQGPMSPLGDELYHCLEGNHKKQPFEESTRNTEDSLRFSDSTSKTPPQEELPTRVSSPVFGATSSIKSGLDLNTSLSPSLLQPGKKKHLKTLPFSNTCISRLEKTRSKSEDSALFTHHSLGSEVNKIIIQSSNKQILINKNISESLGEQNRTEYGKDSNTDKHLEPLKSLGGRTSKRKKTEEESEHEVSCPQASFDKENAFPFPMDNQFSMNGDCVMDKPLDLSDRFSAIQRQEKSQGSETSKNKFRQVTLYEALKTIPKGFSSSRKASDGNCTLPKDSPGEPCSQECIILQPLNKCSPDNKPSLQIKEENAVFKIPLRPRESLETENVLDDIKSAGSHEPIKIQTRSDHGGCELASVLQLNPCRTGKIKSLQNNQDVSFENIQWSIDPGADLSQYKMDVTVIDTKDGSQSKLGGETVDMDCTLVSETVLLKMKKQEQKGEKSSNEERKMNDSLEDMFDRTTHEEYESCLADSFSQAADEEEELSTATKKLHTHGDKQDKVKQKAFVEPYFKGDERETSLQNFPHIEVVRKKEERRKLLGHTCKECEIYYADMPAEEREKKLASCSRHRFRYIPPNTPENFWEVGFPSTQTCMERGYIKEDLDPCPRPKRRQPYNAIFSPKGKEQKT

binding against the reference ([1]; sites S233,T245,S276): weaker
Molecule: CtIP 200-600 (from UniProt Q99708) S233A/T245A/S276A (printed S233A/S245A/S276A)

binding against the reference [2]: weaker
Molecule: CtIP (from UniProt Q99708) S327A

binding against the reference ([1]; sites S233,T245,S276,T315,S347): lost
Molecule: CtIP 200-600 (from UniProt Q99708) 5A-CDK

binding against the reference ([1]; sites T245,S276,S347): weaker
Molecule: CtIP 200-600 (from UniProt Q99708) T245A/S276A/S347A

binding against the reference ([1]; sites T315,S347): weaker
Molecule: CtIP 200-600 (from UniProt Q99708) T315A/S347A

binding result [3]: binds
B1: Purified Nbs1(1–335) (domain or fragment, human, UniProt O60934 1-335, looked up)
chain: MWKLLPAAGPAGGEPYRLLTGVEYVVGRKNCAILIENDQSISRNHAVLTANFSVTNLSQTDEIPVLTLKDNSKYGTFVNEEKMQNGFSRTLKSGDGITFGVFGSKFRIEYEPLVACSSCLDVSGKTALNQAILQLGGFTVNNWTEECTHLVMVSVKVTIKTICALICGRPIVKPEYFTEFLKAVESKKQPPQIESFYPPLDEPSIGSKNVDLSGRQERKQIFKGKTFIFLNAKQHKKLSSAVVFGGGEARLITEENEEEHNFFLAPGTCVVDTGITNSQTLIPDCQKKWIQSIMDMLQRQGLRPIPEAEIGLAVIFMTTKNYCDPQGHPSTGLKT
notes: also called Nbs1-WT-N; source: Sf9 insect cells, purified (Ni-NTA column followed by MonoQ column); not shown: His, C-terminal, kept

Source: publication PMC3585124, “The Interaction of CtIP and Nbs1 Connects CDK and ATM to Regulate HR–Mediated Double-Strand Break Repair” (PLoS Genetics, 2013)
